Measurements reported in US8361765B2, “Enzymic method for the enantioselective reduction of keto compounds” (IEP GmbH, priority 2001, dated 2013).

Legend:
Assay type in all cases: biochemical, Lactobacillus minor
[1] = pH stability of cloned L. minor alcohol dehydrogenase
Experimental: The activity of the enzyme as a function of storage in buffers with different pH values in the range from pH 4 to 11 was studied. For this purpose, various buffers (50 mM) in the range from pH 4 to 11 were prepared and the enzyme purified in Example 2 was diluted 1:100 therein and incubated for 30 min. All buffers contained 1 mM MgCl2. 10 μl of this were then used in the normal enzyme assay (triethanolamine buffer 100 mM pH=7.0, 1 mM MgCl2, 10 mM ethyl 4-chloro-3-oxo-butanoate and 0.19 mM NADPH). The reaction was monitored at 30° C. and 340 nm for 1 min.
The starting value here is the measured value obtained immediately after diluting the enzyme in triethanolamine buffer 50 mM pH=7.0. Under predefined conditions, this value corresponded to a change in extinction of 0.20/min and was set as 100% value, with all subsequent measured values being related to this value.

[2] = Temperature stability of L. minor alcohol dehydrogenase; conditions: for temperature up to which the enzyme is stable: 30 min incubation; for Activity in % (n = 4): measured at 30° C.
Experimental: The temperature stability for the range from 25° C. to 50° C. was determined similarly to the manner described in A.). For this purpose, in each case a 1:100 dilution of the purified enzyme was incubated at the particular temperature for 30 min and then measured at 30° C. using the above assay procedure. Here too, the starting value used was the measured value obtained immediately after diluting the enzyme in triethanolamine buffer 50 mM pH=7.0. This value was also set here as 100% value. L. minor alcohol dehydrogenase is stable up to a temperature of 40° C. Thereafter, the activity rapidly declines.

[3] = pH optimum of the enzymic reaction; conditions: 30° C.
Experimental: As in the standard assay, the concentration of ethyl 4-chloro-3-oxo-butanoate and of NADPH was 10 mM and 0.19 mM, respectively. The reaction was determined at 30° C.

[4] = Temperature optimum of the enzymic reaction
Experimental: The optimal assay temperature was determined by measuring the enzyme activity from 25° C. to 60° C. The assay mixture corresponded to the standard concentration of ethyl 4-chloro-3-oxo-butanoate and NADPH.

[5] = tested on: L. minor alcohol dehydrogenase; experiment: Enzyme stability under process conditions; conditions: for several days
Experimental: The stability of the enzyme under process conditions was studied by diluting L. minor alcohol dehydrogenase 1:100 with the solvent mixtures used in the two-phase system, followed by incubation at room temperature. 10 μl of the enzyme solution were then used in the standard assay mixture. Table 8 depicts the enzyme activities as a % of the starting value.

[6] = Enzyme obtainment and purification: activity of crude extract and purified enzyme; conditions: for volume activity: 25° C.
Experimental: The enzyme was obtained by culturing the strain with the highest enzymic activity in a fermenter (fed batch, 10 l) and inducing it at 40 OD500 with 1 mM IPTG. After 18 h, the cells were harvested, taking up 300 g of cells in 3 l of Kpi buffer (50 mM, pH=7, 1 mM MgCl2) and disrupted subsequently by means of a French press (Gaullin, Siemens).
To characterize the enzyme, a portion of the enzyme obtained was purified by means of […] chromatography on Q-Sepharose ff (fast flow). For this purpose, the column used was equilibrated with 50 mM Kpi buffer pH=7.0, 1 mM MgCl2. After application of the crude extract to the column and brief washing with equilibration buffer, the enzyme was eluted with an increasing linear salt gradient (0-1M NaCl, 1 ml/min) at a salt concentration of about 0.3 M NaCl. […] The enzyme purified in this way thus has a specific activity of approximately 35 to 40 U/mg of protein.
All enzymic activities were determined at 25° C. The enzyme activity was calculated as follows: • Calculation: 1 unit=conversion of 1 μmol of substrate per min • Lambert-Beer law • NADPH decrease was monitored at 340 nm (see enzymic assay mixture)=ΔE/min • N=enzyme dilution factor • V=enzyme volume in ml (0.01) • Vcuvette=cuvette volume=1 ml • d=cuvette light path=1 cm • eNADPH NADPH extinction coefficient=6.22 [mM^−1*cm^−1] • Activity=(ΔE/min*N*Vcuvette)/(eNADPH*V*d)
Protein determination was carried out according to Bradford (Bio-Rad Laboratories GmbH, Protein Assay).

[7] = crude extract after fermentation and French press

B1: L. minor alcohol dehydrogenase: R-specific alcohol dehydrogenase from Lactobacillus minor, SEQ ID NO: 4, overexpressed in Escherichia coli RB 791 (protein, listed as Lactobacillus sp.)
chain: MRGSHHHHHHGSMTDRLKGKVAIVTGGTLGIGLAIADKFVEEGAKVVITGRHADVGEKAARSIGGTDVIRFVQHDASDETGWTKLFDTTEEAFGPVTTVVNNAGIAVSKSVEDTTTEEWRKLLSVNLDGVFFGTRLGIQRMKNKGLGASIINMSSIEGEVGDPALGAYNASKGAVRIMSKSAALDCALKDYDVRVNTVHPGYIKTPLVDDLEGAEEMMSQRTKTPMGHIGEPNDIAWICVYLASDESKFATGAEFVVDGGYTAQ
- Activity in % (n = 2) ([1]; after 30 min at pH 4, sodium acetate/acetic acid 50 mM, 100% = value directly after dilution): 87.5 ± 6.5%
- Activity in % (n = 2) ([1]; after 30 min at pH 4.5, sodium acetate/acetic acid 50 mM): 94.5 ± 3.0%
- Activity in % (n = 2) ([1]; after 30 min at pH 5, MES/NaOH 50 mM): 55 ± 5%
- Activity in % (n = 2) ([1]; after 30 min at pH 5, sodium acetate/acetic acid 50 mM): 94.5 ± 1.5%
- Activity in % (n = 2) ([1]; after 30 min at pH 5.5, KH2PO4/K2PO4 50 mM): 96 ± 3%
- Activity in % (n = 2) ([1]; after 30 min at pH 5.5, MES/NaOH 50 mM): 77.1 ± 2.1%
- Activity in % (n = 2) ([1]; after 30 min at pH 6, KH2PO4/K2PO4 50 mM): 100 ± 0%
- Activity in % (n = 2) ([1]; after 30 min at pH 6, triethanolamine/NaOH 50 mM): 100 ± 0%
- Activity in % (n = 2) ([1]; after 30 min at pH 6.5, KH2PO4/K2PO4 50 mM): 97.5 ± 2.5%
- Activity in % (n = 2) ([1]; after 30 min at pH 6.5, triethanolamine/NaOH 50 mM): 100 ± 0%
- Activity in % (n = 2) ([1]; after 30 min at pH 7, KH2PO4/K2PO4 50 mM): 100 ± 0%
- Activity in % (n = 2) ([1]; after 30 min at pH 7, triethanolamine/NaOH 50 mM): 97.9 ± 2.1%
- Activity in % (n = 2) ([1]; after 30 min at pH 7.5, KH2PO4/K2PO4 50 mM): 97.5 ± 7.5%
- Activity in % (n = 2) ([1]; after 30 min at pH 7.5, tris/HCl 50 mM): 94.6 ± 1.3%
- Activity in % (n = 2) ([1]; after 30 min at pH 8, KH2PO4/K2PO4 50 mM): 93.0 ± 3.0%
- Activity in % (n = 2) ([1]; after 30 min at pH 8, tris/HCl 50 mM): 89.2 ± 0%
- Activity in % (n = 2) ([1]; after 30 min at pH 8.5, KH2PO4/K2PO4 50 mM): 102.5 ± 2.5%
- Activity in % (n = 2) ([1]; after 30 min at pH 8.5, tris/HCl 50 mM): 60 ± 4.2%
- Activity in % (n = 2) ([1]; after 30 min at pH 9, glycine/NaOH 50 mM): 76.5 ± 1.5%
- Activity in % (n = 2) ([1]; after 30 min at pH 9, tris/HCl 50 mM): 63.1 ± 4.8%
- Activity in % (n = 2) ([1]; after 30 min at pH 9.5, glycine/NaOH 50 mM): 52.5 ± 7.5%
- Activity in % (n = 2) ([1]; after 30 min at pH 10, glycine/NaOH 50 mM): 52.5 ± 7.5%
- Activity in % (n = 2) ([1]; after 30 min at pH 11, glycine/NaOH 50 mM): 0.0 ± 0%
- temperature up to which the enzyme is stable [2]: ≤ 40 °C
- temperature up to which the enzyme is stable ([2]; listed as Lactobacillus minor alcohol dehydrogenase): about 40 °C
- Activity in % (n = 4) ([2]; after 30 min at 25° C.): 101 ± 3.2%
- Activity in % (n = 4) ([2]; after 30 min at 30° C.): 81.2 ± 5.8%
- Activity in % (n = 4) ([2]; after 30 min at 35° C.): 67.0 ± 1.6%
- Activity in % (n = 4) ([2]; after 30 min at 37° C.): 20.2 ± 2.4%
- Activity in % (n = 4) ([2]; after 30 min at 40° C.): 33.4 ± 3.8%
- Activity in % (n = 4) ([2]; after 30 min at 42° C.): 0 ± 0%
- Activity in % (n = 4) ([2]; after 30 min at 45° C.): 0 ± 0%
- Activity in % (n = 4) ([2]; after 30 min at 50° C.): 0 ± 0%
- Activity in U/ml of undiluted enzyme ([3]; assay at pH 4, sodium acetate/acetic acid): 85 U/ml
- Activity in U/ml of undiluted enzyme ([3]; assay at pH 4.5, sodium acetate/acetic acid): 132 U/ml
- Activity in U/ml of undiluted enzyme ([3]; assay at pH 5, MES/NaOH): 218 U/ml
- Activity in U/ml of undiluted enzyme ([3]; assay at pH 5.5, MES/NaOH): 240 U/ml
- Activity in U/ml of undiluted enzyme ([3]; assay at pH 6, triethanolamine/NaOH): 381 U/ml
- Activity in U/ml of undiluted enzyme ([3]; assay at pH 6.5, triethanolamine/NaOH): 349 U/ml
- Activity in U/ml of undiluted enzyme ([3]; assay at pH 7, triethanolamine/NaOH): 510 U/ml
- Activity in U/ml of undiluted enzyme ([3]; assay at pH 7.5, tris/HCl): 707 U/ml
- Activity in U/ml of undiluted enzyme ([3]; assay at pH 8, tris/HCl): 585 U/ml
- Activity in U/ml of undiluted enzyme ([3]; assay at pH 8.5, tris/HCl): 486 U/ml
- Activity in U/ml of undiluted enzyme ([3]; assay at pH 9, tris/HCl): 488 U/ml
- Activity in U/ml of undiluted enzyme ([3]; assay at pH 10, glycine/NaOH): 131 U/ml
- Activity in U/ml of undiluted enzyme ([3]; assay at pH 11, glycine/NaOH): 0 U/ml
- Activity in U/ml of undiluted enzyme ([4]; assay temperature 25° C.): 540 U/ml
- Activity in U/ml of undiluted enzyme ([4]; assay temperature 30° C.): 1235 U/ml
- Activity in U/ml of undiluted enzyme ([4]; assay temperature 35° C.): 1968 U/ml
- Activity in U/ml of undiluted enzyme ([4]; assay temperature 40° C.): 1621 U/ml
- Activity in U/ml of undiluted enzyme ([4]; assay temperature 45° C.): 2469 U/ml
- Activity in U/ml of undiluted enzyme ([4]; assay temperature 50° C.): 2469 U/ml
- Activity in U/ml of undiluted enzyme ([4]; assay temperature 55° C.): 2855 U/ml
- Activity in U/ml of undiluted enzyme ([4]; assay temperature 60° C.): 0 U/ml
- stability in the combination of solvents used in the two-phase system (in words) [5]: stable and active
- activity per wet mass [6, 7]: 20 000 U/g of wet mass
- volume activity [6, 7]: approximately 2000 U/ml
- activity per wet mass on overexpression in Escherichia coli ([6]; overexpressed in Escherichia coli RB 791): 20 000 units/g of wet mass
- volume activity ([6]; purified enzyme, Q-Sepharose ff): about 800 U/ml
